Source: PMC2132842

Tests used:
Experiment in all cases: two-hybrid
GAL4/CAS (human) = GAL4/CAS (human) (UniProt P55060)
GAL4/Imp βΔ1/261 (human) = GAL4/Imp βΔ1/261 (human) (UniProt Q14974)
GAL4/LEF-1 (297–399) = GAL4/LEF-1 (297–399) (UniProt Q9UJU2)
Sequence of GAL4/LEF-1 (297–399) (Q9UJU2 297-399): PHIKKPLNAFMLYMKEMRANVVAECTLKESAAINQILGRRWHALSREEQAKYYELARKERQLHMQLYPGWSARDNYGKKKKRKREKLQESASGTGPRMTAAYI

Sequence of GAL4/CAS (human) (P55060 whole entry, the tested form may be a part): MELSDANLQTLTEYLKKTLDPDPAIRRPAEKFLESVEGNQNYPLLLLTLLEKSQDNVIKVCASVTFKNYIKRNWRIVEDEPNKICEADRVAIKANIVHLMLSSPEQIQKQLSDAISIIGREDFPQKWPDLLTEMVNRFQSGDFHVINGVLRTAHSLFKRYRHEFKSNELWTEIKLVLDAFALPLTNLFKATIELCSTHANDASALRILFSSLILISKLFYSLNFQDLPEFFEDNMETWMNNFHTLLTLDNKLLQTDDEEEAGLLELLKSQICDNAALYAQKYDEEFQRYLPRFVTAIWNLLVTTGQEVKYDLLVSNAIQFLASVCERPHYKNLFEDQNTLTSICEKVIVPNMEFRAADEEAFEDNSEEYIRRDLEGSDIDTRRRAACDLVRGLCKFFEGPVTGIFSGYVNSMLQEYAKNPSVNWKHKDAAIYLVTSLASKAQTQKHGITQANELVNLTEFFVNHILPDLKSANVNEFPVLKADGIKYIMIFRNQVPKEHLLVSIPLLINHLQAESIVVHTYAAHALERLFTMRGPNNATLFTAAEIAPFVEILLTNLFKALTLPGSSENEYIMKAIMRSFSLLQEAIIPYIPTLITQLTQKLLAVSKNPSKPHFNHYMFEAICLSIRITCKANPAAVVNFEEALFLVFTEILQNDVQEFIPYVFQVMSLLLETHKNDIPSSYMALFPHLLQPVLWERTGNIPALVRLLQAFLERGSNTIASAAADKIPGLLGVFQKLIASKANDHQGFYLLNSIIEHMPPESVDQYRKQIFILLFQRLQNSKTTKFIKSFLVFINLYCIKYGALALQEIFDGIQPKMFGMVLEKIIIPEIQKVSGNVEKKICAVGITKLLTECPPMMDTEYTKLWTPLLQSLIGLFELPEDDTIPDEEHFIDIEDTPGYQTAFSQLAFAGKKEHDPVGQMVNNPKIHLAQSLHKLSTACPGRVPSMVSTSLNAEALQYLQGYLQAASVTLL
Sequence of GAL4/Imp βΔ1/261 (human) (Q14974 262-876, stated change not applied): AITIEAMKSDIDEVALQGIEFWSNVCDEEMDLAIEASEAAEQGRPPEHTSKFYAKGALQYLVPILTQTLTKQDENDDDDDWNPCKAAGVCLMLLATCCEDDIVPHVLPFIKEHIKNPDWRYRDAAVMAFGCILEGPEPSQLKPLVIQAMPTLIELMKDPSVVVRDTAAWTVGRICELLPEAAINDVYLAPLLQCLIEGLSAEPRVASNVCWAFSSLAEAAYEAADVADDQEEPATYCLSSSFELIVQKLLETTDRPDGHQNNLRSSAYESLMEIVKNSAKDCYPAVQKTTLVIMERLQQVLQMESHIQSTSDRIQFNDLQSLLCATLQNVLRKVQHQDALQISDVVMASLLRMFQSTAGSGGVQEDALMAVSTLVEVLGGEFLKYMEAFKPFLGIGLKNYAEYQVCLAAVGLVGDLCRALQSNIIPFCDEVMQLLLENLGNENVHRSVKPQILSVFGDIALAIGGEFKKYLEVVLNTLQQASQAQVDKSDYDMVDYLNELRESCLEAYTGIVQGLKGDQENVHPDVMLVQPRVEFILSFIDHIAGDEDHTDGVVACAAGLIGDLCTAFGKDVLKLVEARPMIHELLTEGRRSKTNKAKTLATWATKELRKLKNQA

- β-gal activity (GAL4/CAS (human)): 434 mOD/ml
- β-gal activity (GAL4/Imp βΔ1/261 (human)): 1200 mOD/ml
- β-gal activity (GAL4/LEF-1 (297–399)): 130 mOD/ml
Substance: VP16/Imp α2 (from UniProt P52292 1-529) (natural protein)
